Laboratory results as given in the supplement of paper PMC9732359.
± gives the uncertainty stated by the source.

Assay: protein stability index of a GFP-peptide fusion (yeast GPS) (PSI 1-4); higher = more stable; sorted into four equal gates, so the index is relative within each strain
Conditions: doa10∆
Outline: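 Tiled 17-residue peptides from yeast proteins were fused downstream of GFP on a plasmid that also expresses Cherry, and the pooled library was carried in yeast. Mid-log cultures grown in leucine-free medium were sorted into four equal gates by GFP/Cherry fluorescence ratio. Plasmids from each gate were PCR-amplified and Illumina-sequenced, and reads were assigned to strains by barcodes. Each peptide's protein stability index is the sum, over gates, of the gate's read frequency multiplied by its gate number.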
Work on INTHIETLAYNSLKETL [SNF2] yielded a protein stability index of 2.48 ± 0.054.
Work on IPDHLAELIPELYSFQQ [SNF12] yielded a protein stability index of 3.02 ± 0.077.
Work on IPQSQQVPQVRSMSGQP [SNF5] yielded a protein stability index of 2.52 ± 0.05.
IPRTFRTPVPSTLMPGG [SNF5] gave a protein stability index of 2.68 ± 0.066.
With IPSLQNNIEENLRLLNS [ECM29] the protein stability index was 3.13 ± 0.065.
Work on IPYAAKLLFQELLSMNI [RET1] yielded a protein stability index of 1.55 ± 0.1.
Work on IQAGKFDNKSTSEEQEA [SNF2] yielded a protein stability index of 3.28 ± 0.068.
Work on IQNDIYLNDLMITKRIL [RPN12] yielded a protein stability index of 2.34 ± 0.18.
For IQQHARYDCSFCGKKTV [RPL43A], the protein stability index was 2.71 ± 0.23.
IQSSLMTNLTYFLHLSV [YCS4] gave a protein stability index of 2.15 ± 0.065.
With IQVAAFIYGMSAKDHPK [PRP8] the protein stability index was 3.24 ± 0.091.
IQVLTEASSLGYLDDSE [IRR1] gave a protein stability index of 1.3 ± 0.068.
In the case of IRDPLTQTGLLQDLEEA [RPC82], the protein stability index is reported as 3.31 ± 0.23.
IRDSIPQMDSFDKDLER [DIS3] showed a protein stability index of 3.15 ± 0.092.
Sequence IREGQNQKIPDNVIVIN [SIR3] has a protein stability index of 2.9 ± 0.049.
Sequence IREIDVTGGKKALVLFV [RPS7B] has a protein stability index of 1.3 ± 0.085.
With IREINYTMSNHGMSVDP [RPO31] the protein stability index was 2.87 ± 0.16.
IRGKILTGTVVSTKMHR [RPS11A] showed a protein stability index of 3 ± 0.066.
Sequence IRKDPNNLSNQLETLTG [CSE2] has a protein stability index of 2.87 ± 0.11.
IRNCATEAGFFAIRDDR [RPT4] showed a protein stability index of 2.82 ± 0.062.
Work on IRTILVNIHHLLNEYRP [MED7] yielded a protein stability index of 2.21 ± 0.064.
Sequence IRYNAKRRNWRRTKMNI [RPL39] has a protein stability index of 3.23 ± 0.095.
Sequence ISAEDRADTDLAMNDDD [SNF2] has a protein stability index of 3.44 ± 0.23.
For ISAFTQFLRLIFVSILS [ARP9], the protein stability index was 2.17 ± 0.065.
With ISCPLIGVIQLAHYVVT [FAS1] the protein stability index was 1.57 ± 0.072.
ISDYQQLESIYFRILLP [SWI1] gave a protein stability index of 2.24 ± 0.045.
For ISENTFPNGFKNFENGP [RPC34], the protein stability index was 2.96 ± 0.081.
With ISFRSNLLKNFISSNDA [SNF6] the protein stability index was 2.77 ± 0.12.
In the case of ISKDCSAFACKTDEVII [BRR2], the protein stability index is reported as 2.99 ± 0.12.
ISKTTLTLDPRYIWRSL [RPN3] gave a protein stability index of 2.75 ± 0.1.
ISPESVFGTLGELIKVN [SMC3] showed a protein stability index of 2.15 ± 0.06.
Work on ISSRTFGQRAVLKFAAH [RPS0A] yielded a protein stability index of 2.35 ± 0.095.
For ISTLQVKLYGREGSSAR [RPB2], the protein stability index was 2.71 ± 0.17.
In the case of ISTSDVTRIINSSEIQS [RPL4A], the protein stability index is reported as 2.39 ± 0.04.
ISVNSSSFSLTFFPRCI [POP1] showed a protein stability index of 2.55 ± 0.03.
ITFHPKIRARSITLQGD [SMC2] showed a protein stability index of 2.48 ± 0.049.
Sequence ITFLQTLYIGNTANGRP [ECM29] has a protein stability index of 2.04 ± 0.085.
Sequence ITGGIIEETSAAIKDLD [RRP43] has a protein stability index of 3.13 ± 0.2.
In the case of ITLENITRLCQTLGLES [MED1], the protein stability index is reported as 2.07 ± 0.04.
With ITPMNDDQCMLITTYSK [SIN4] the protein stability index was 1.93 ± 0.064.
With ITQDGKFAYKIDKITDG [YMR129W/POM152] the protein stability index was 2.9 ± 0.087.
In the case of ITSGGFLLKAYINVSRG [SRB5], the protein stability index is reported as 2.23 ± 0.17.
ITSWYENHNKGKLWKDV [QCR9] gave a protein stability index of 2.81 ± 0.21.
Sequence ITTFVKRSTVPLNDGFV [YML103C/NUP188] has a protein stability index of 2.37 ± 0.066.
Sequence ITYDKQEPSASQVKDSV [SRP68] has a protein stability index of 3.14 ± 0.046.
Sequence IVDFTLPPPPPPPGLDE [PRP8] has a protein stability index of 3.15 ± 0.05.
IVGVLQDDADPMVSVMK [RPT2] showed a protein stability index of 1.99 ± 0.057.
Work on IVHDDPASDDILDNINH [ITC1] yielded a protein stability index of 2.98 ± 0.072.
Work on IVKGNIIDEIKCIPKKG [POP4] yielded a protein stability index of 1.79 ± 0.05.
With IVLLDDEGKEIPATIFD [TAF14] the protein stability index was 2.82 ± 0.06.
With IVLSDQTQEFFLSSFDD [YJL039C/NUP192] the protein stability index was 2.91 ± 0.12.
In the case of IVMVWLKENTYVMERPK [YDL116W/NUP84], the protein stability index is reported as 1.46 ± 0.064.
For IVNHEQDLPKINDKRAN [SRB4], the protein stability index was 3.28 ± 0.19.
In the case of IVPDLIINPHAIPSRMT [RPB2], the protein stability index is reported as 1.81 ± 0.048.
With IVWRFISENTFPNGFKN [RPC34] the protein stability index was 1.84 ± 0.06.
For IWLRKTSQMDLARDTPS [RRP4], the protein stability index was 1.61 ± 0.041.
With IWMRGHGTYFLDNMTYS [RRP4] the protein stability index was 2.45 ± 0.06.
Sequence IYDFPGTPEATKGMITN [NUT2] has a protein stability index of 2.54 ± 0.11.
With IYSSDAQGDPNLEPLIA [NUT1] the protein stability index was 3.36 ± 0.14.
With IYVHVRRSTPFSKIAEY [ESC2] the protein stability index was 2.16 ± 0.053.
KAAISFGAKPEEQKSSD [YJL041W/NSP1] gave a protein stability index of 3.12 ± 0.13.
Work on KAEVTQLSNGIVVATEH [COR1] yielded a protein stability index of 2.58 ± 0.17.
Sequence KAFEERHQAGKNQWFFS [RPL27A] has a protein stability index of 2.87 ± 0.097.
KAFKNNSSKYYINEKES [SMC4] gave a protein stability index of 2.54 ± 0.12.
For KAGKVAVVVRGRYAGKK [RPL27A], the protein stability index was 2.19 ± 0.083.
With KAIFPNTVDGDLLKLVH [FAS1] the protein stability index was 2.19 ± 0.17.
For KAIRGMVSHKTARGKAA [RPL16B], the protein stability index was 1.94 ± 0.056.
KAKERLQALKANDEEAY [SNF2] gave a protein stability index of 1.81 ± 0.14.
For KAKNPLTHSTPKNFGIG [RPL8B], the protein stability index was 3.31 ± 0.13.
With KAKSHFTNIISRNKALE [YJL039C/NUP192] the protein stability index was 2.66 ± 0.079.
Sequence KALAIFVPVPSLAGFHK [RPS7A] has a protein stability index of 2.29 ± 0.051.
Sequence KAPNAVVITFEKEDHTL [RPB11] has a protein stability index of 1.26 ± 0.077.
For KASTYGELVLDIEVPDV [SNF12], the protein stability index was 2.61 ± 0.058.
KCKTRAQLTLKRCKHFE [RPL42A] showed a protein stability index of 2.65 ± 0.088.
For KCVVIHNGSHRTVAGFS [ARP7], the protein stability index was 2.67 ± 0.051.
Work on KDAVDYSKIPNILSNKP [RRP6] yielded a protein stability index of 1.51 ± 0.096.
In the case of KDFTNKNLIQLISLKLL [SRB8], the protein stability index is reported as 1.28 ± 0.042.
In the case of KDGRIRIFKITEKLSPL [YGL100W/SEH1], the protein stability index is reported as 2.84 ± 0.079.
KDKLREFIPHSTEYMMQ [RPN6] showed a protein stability index of 3.46 ± 0.11.
KDLETLYNKIWTEASSS [ECM29] showed a protein stability index of 3.24 ± 0.2.
For KDQLPDLESMGLTQLYK [MED7], the protein stability index was 2.85 ± 0.07.
Sequence KDRISHEVVQDDSFSLL [PCI8] has a protein stability index of 3.19 ± 0.082.
Sequence KDSNKDVVVEGLRRARY [RPL10] has a protein stability index of 3.26 ± 0.097.
KDSSLNYSSESYRNAFT [YJL039C/NUP192] showed a protein stability index of 2.89 ± 0.06.
KEDHPLEFYKDKFFNEV [SIR3] showed a protein stability index of 3.21 ± 0.086.
For KEILDNILPFLWGPHGL [ECM29], the protein stability index was 2.67 ± 0.24.
KEIYYTPDPSELAAKEE [FAS2] showed a protein stability index of 2.631 ± 0.023.
Work on KEKIKNNRQLPYLVANV [RPT5] yielded a protein stability index of 2.78 ± 0.1.
Work on KELAELKVQKLSRPSLP [RPL35A] yielded a protein stability index of 2.56 ± 0.045.
KELENNLERLRSDLQSK [YIL149C/MLP2] showed a protein stability index of 3.17 ± 0.062.
Sequence KERLTKEAAAIAEGKSK [RPL8B] has a protein stability index of 2.19 ± 0.05.
For KETIARVTGGMKVKADR [RPS14A], the protein stability index was 3.29 ± 0.11.
KETQQYELEFDTPTSGK [BRR2] showed a protein stability index of 2.99 ± 0.05.
With KEVLPDLQNLNLNTDKL [YJL039C/NUP192] the protein stability index was 3.38 ± 0.1.
KFDSRIRGILMASGSTT [PRP8] gave a protein stability index of 2.44 ± 0.084.
For KFENDELAESTTTKIID [LRP1], the protein stability index was 2.04 ± 0.13.
Sequence KFFQKKIHLYEKKLEDY [YGL172W/NUP49] has a protein stability index of 2.83 ± 0.093.
For KFKLLNGLAIRRAAYGV [RPS3], the protein stability index was 2 ± 0.046.
For KFMTNSTAFVPTIEYVQ [ARP9], the protein stability index was 2.22 ± 0.062.
In the case of KFRSSILRKSFDFLMNM [RPN2], the protein stability index is reported as 2.1 ± 0.13.
In the case of KFSLPFEQKGSQTTTND [YLR335W/NUP2], the protein stability index is reported as 3.25 ± 0.1.
Sequence KFSSRHGQKGVCGIIVK [RET1] has a protein stability index of 3.56 ± 0.095.

Same assay, conditions: pdr5∆
INTHIETLAYNSLKETL [SNF2] gave a protein stability index of 2.76 ± 0.063.
